Source: US20190010243A1

Experiments:
[1] = target: soluble human FcγRIIIA F158 (human) (UniProt P08637); assay: SPR (BIACORE); koff compared with wild-type Fc
[2] = target: soluble human FcγRIIB (human) (UniProt P31994); assay: SPR (BIACORE); koff compared with wild-type Fc
CD32A^H = CD32A^H (UniProt P12318); assay: SPR (BIACORE); koff compared with wild-type Fc
[3] = target: soluble human FcγRIIIA V158 (human) (UniProt P08637); assay: SPR (BIACORE); koff compared with wild-type Fc
[4] = target: soluble human FcRn (human) (UniProt P55899); assay: SPR (Biacore 3000); ch4420 captured on protein-FITC surface; 500 nM hFcRn injected; pH 6.0
UniProt P55899, sequence (P55899 24-297 limits assumed, chain 1 of 2): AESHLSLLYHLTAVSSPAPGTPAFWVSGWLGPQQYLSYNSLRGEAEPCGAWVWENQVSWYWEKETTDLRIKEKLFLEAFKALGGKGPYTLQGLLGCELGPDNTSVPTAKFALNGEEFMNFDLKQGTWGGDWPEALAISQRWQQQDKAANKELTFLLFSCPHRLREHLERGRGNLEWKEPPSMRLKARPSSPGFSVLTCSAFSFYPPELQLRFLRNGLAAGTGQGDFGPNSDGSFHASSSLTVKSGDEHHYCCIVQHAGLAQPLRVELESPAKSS
UniProt P55899, sequence (P61769 21-119 limits assumed, chain 2 of 2, further chain): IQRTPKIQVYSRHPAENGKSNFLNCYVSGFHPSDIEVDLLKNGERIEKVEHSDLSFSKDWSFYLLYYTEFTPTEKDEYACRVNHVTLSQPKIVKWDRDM

UniProt P31994, sequence (P31994 43-217 limits assumed): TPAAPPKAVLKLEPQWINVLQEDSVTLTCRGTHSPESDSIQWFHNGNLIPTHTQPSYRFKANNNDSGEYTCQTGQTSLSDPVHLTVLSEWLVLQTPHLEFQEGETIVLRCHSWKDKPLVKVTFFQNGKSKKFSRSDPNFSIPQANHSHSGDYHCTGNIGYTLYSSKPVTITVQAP
UniProt P12318, sequence (P12318 34-217 limits assumed): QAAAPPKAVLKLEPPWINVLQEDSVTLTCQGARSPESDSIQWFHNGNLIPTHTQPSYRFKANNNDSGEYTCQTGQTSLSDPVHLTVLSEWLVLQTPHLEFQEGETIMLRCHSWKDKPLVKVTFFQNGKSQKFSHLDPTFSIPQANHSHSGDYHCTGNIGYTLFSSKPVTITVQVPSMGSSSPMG

| Substance | ratio WT koff/mutant koff [1] | ratio WT koff/mutant koff [2] | ratio WT koff/mutant koff (CD32A^H) | ratio WT koff/mutant koff [3] | fold increase of binding response over wild type [4] |
| --- | --- | --- | --- | --- | --- |
| Fc mutant 12 (F243L R292P Y300L) | 4.6 fold | 0.6 fold | 1 fold | 7.4 fold | – |
| Fc mutant 14 (F243L R292P P396L) | – | 0.4 fold | 1.4 fold | 6.3 fold | – |
| Fc mutant 2 (D270E) | – | 0.4 fold | 2.2 fold | 1.3 fold | – |
| Fc mutant 15 (R292P V305I P396L) | 1.9 fold | 0.9 fold | 1.5 fold | 1.9 fold | – |
| Fc mutant 6 (V305I) | 0.6 fold | 1.2 fold | 1.3 fold | 0.9 fold | – |
| Fc mutant 11 (R292P V305I) | – | 0.4 fold | 0.8 fold | – | – |
| Fc mutant 3 (R292P) | 1.6 fold | 0.3 fold | 0.7 fold | 2.4 fold | – |
| Fc mutant 5 (Y300L) | 1.2 fold | 1.2 fold | 2.9 fold | – | – |
| Fc mutant 18 (F243L R292P Y300L V305I P396L) | 8.3 fold | 1.4 fold | 3.2 fold | 10.1 fold | – |
| Fc mutant 10 (F243L R292P) | – | 0.2 fold | 0.5 fold | 4 fold | – |
| Fc mutant 4 (S298N) | – | 0.2 fold | – | – | – |
| Fc mutant 16 (F243L R292P Y300L P396L) | 5.6 fold | 1.1 fold | 1.7 fold | 10.1 fold | – |
| Fc mutant 7 (A330V) | 1.2 fold | 0.3 fold | 0.4 fold | 0.6 fold | – |
| Fc mutant 17 (F243L R292P V305I P396L) | 2.3 fold | 0.4 fold | 0.8 fold | 4 fold | – |
| ch4420 variant H435K (antibody) | – | – | – | – | < 4 fold |
| Fc mutant 9 (F243L P396L) | – | 1.6 fold | 1.5 fold | – | – |
| Fc mutant 1 (F243L) | – | 0.8 fold | 0.6 fold | 4.8 fold | – |
| Fc mutant 13 (F243L R292P V305I) | 1.4 fold | 0.1 fold | 0.2 fold | 2.6 fold | – |
| Fc mutant 8 (P396L) | – | 2.6 fold | 1.6 fold | 1.3 fold | – |
